In PMC5986207:

Target: human HER2 extracellular domain, soluble, His-tagged (human)
Experiment: AUC; multisignal sedimentation velocity (MSSV), 4:1 molar loading of HER2 to antibody (5.8:1.4 μM), PBS, 20 °C, 42,000 rpm, UV 280 and 250 nm and interference, SEDPHAT

Question: Which results are given for “MEDI4276, anti-HER2 biparatopic, monospecific, tetravalent antibody (trastuzumab scFv on the N terminus of the 39S heavy chain) (bispecific antibody)”?
Answer: stoichiometry N (HER2 per MEDI4276 (2:1)): 2; stoichiometry N (HER2 per MEDI4276 (5:3)): 1.67
